The record followed here is the DeepSol protein solubility set.

This data set is described as follows: soluble on expression in E. coli; label from the status in PepcDB or PDB records.
Regarding “MTSLEKARELLREFPVVDGHNDLPWALREQVRYDLDARDIAADQSAHLHTDLARLRSGGVGAQYWSVYVRSDLPGAVTATLEQIDCVRRLIDRHPGELRAALTAADMEAARAEGRIASLMGAEGGHSIDNSLATLRALYALGVRYMTLTHNDNNAWADSATDEPGVGGLSAFGREVVREMNREGMLVDLSHVAATTMRDALDTSTAPVIFSHSSSRAVCDHPRNIPDDVLERLSANGGMAMVTFVPKFVLQAAVDWTAEADDNMRAHGFHHLDSSPEAMKVHAAFEERVPRPVATVSTVADHLDHMREVAGVDHLGIGGDYDGTPFTPDGLGDVSGYPNLIAELLDRGWSQSDLAKLTWKNAVRVLDAAEDVSRGLRAARGPSNATIEQLDGTAAEQPEG”, the “soluble on expression in E. coli” value was “soluble”. “MNAHEIDYRLYGDDMQFVEIELDPYESVVAEAGGMMMMDDGIVMETVFGDGSSSGKGLLGRLVGAGKRLLTGESLFMTVFTNQGSGKRRVAFAAPYPGKIIPVDLSELGGKLICQKDSFLCAAKGVSVGIEFQRKLGAGFFGGEGFIMQKLEGDGLAFLHAGGTIHRRDLQPGETLRIDTGCLVAMTKDVNYDIEYVGSIKTAFFGGEGLFLATVTGPGAVWVQSLPFSRLADRVLAAAPSAGGRSVGEGSILGGIGDWLDGDD”: the “soluble on expression in E. coli” value was “not soluble”. Under “EQEVSLDLILVEEYDSLIEKMSNWNFPIFELVEKMGEKSGRILSQVMYTLFQDTGLLEIFKIPTQQFMNYFRALENGYRDIPYHNRIHATDVLHAVWYLTTRPVPGLQQIHNGCGTGNETDSDGRINHGRIAYISSKSCSNPDESYGCLSSNIPALELMALYVAAAMHDYDHPGRTNAFLVATNAPQAVLYNDRSVLENHHAASAWNLYLSRPEYNFLLHLDHVEFKRFRFLVIEAILATDLKKHFDFLAEFNAKANDVNSNGIEWSNENDRLLVCQVCIKLADINGPAKVRDLHLKWTEGIVNEFYEQGDEEANLGLPISPFMDRSSPQLAKLQESFITHIVGPLCNSYDAAGLLPGQWLEAEEDNDTESGDDEDGEELDTEDEEMENNLNPKPPRRKSRRRIFCQLMHHLTENHKIWK” stands “soluble”; under “MSLKKLVIFDLDGTLLNTIADLAHSTNYALNKLGYPTHEIEKYNFMVGNGIDKLFERALPEGEKSKENVLRVRKEFVPYYDIHNADDSRPYPGIPELLSYLQDAGIQITVASNKYQAATQKLIDHYFPEIHFTAVFGQREGIKVKPDPTVVFDILEVAKVTKEEVLYVGDSGVDMQTAANAGVTVCGVTWGFRPRAELEEFSPQYIVDTAEEIKRLILEGHHHHHH”, “soluble”.

For the sequence “MSESIESYGIRLLNVYRETICDGPGLHYSIYLAGCRHACPGCHNPSSWDPEAGVLMTDSILGNIIREINANPLLDGITLSGGDPFYNPAGLTCLLQRLRASCTLPIWCYTGYTLEQLETDPMLSAPLALIDVLVDGPFVRELFDPTLLWRGSSNQCIIRLHENLEHHHHHH”, the “soluble on expression in E. coli” value is reported as “not soluble”. For “MAHHHHHHMRPYKRVLIKLSGGALADQTGNSFNSKRLEHIANEILSIVDLGIEVSIVIGGGNIFRGHLAEEWGIDRVEADNIGTLGTIINSLMLRGVLTSKTNKEVRVMTSIPFNAVAEPYIRLRAVHHLDNGYIVIFGGGNGQPFVTTDYPSVQRAIEMNSDAILVAKQGVDGVFTSDPKHNKSAKMYRKLNYNDVVRQNIQVMDQAALLLARDYNLPAHVFNFDEPGVMRRICLGEHVGTLINDDASLLVHEK” the value was “soluble”; for “MSLAKLPVGGIWKARLVLNEMQWSPYIKVATFSADITLDVTDKNNGAIYLPAFGSATPRVDLNLRTQPLSTAPGGEVSGQANIDMCLYDGYNSNSPWLKVALSDLQTVAGRPADVFSLRRDGSSGTAAADRVDYRITLNYNNQPQTVNNGQDITLASVNSTLIRPVVMPGIAFPVICTPTPLTLNVLPFAKLSKAAGHFSGTLRVTLSADALAEGHHHHHH”, “not soluble”; for “MGSDKIHHHHHHMKINMPENVQTILNKLHSNGYQAYIYGACIRDYLLGKEPINWDITTNALPNNTVVIFDENEGFTSIPSVEDYGIVTLHFKGESCQVNTFRTGEARRFADDISEDLLHKDFTMNSIAYNEQAGIVDPYNGVGDIEKRLIRCAQNPYEQMQEDSARILRAVRFESQLGFKIEAELLQAMKDLKDTVPASGSRVRNEFIQLLLSEQPSRSIRRLLELGLLERLIPELMPAIGFDTHSSYHDKDVFEHSLVVLDNTEPNLTLRLAALLHDIDKPNCLTIDEDGEGHCYGHASGGSEMAQAILGRLNFDRKTIQAVSSLIKEHMNDFGNISDLSIKRLIRRVGPDNIDRLFELQLADIKGSALSSRDPERITKIRNKCFEVLSRREPLTVHDLDISGYDLLSLGYPPGKKIGETMDYLLDQVIDNPSLNQRDTLIALLKNRK”, “not soluble”.
